{"source": "the nanobody polyreactivity screen of Harvey et al. (2022)", "data": [{"assay": "yeast display, Sf9 membrane polyspecificity reagent, FACS + sequencing; frameworks hold sequencing errors", "how_it_was_run": "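Galactose-induced (36–48 hours) yeast carrying a synthetic nanobody display library were exposed to 10% biotinylated, detergent-solubilized Sf9 membrane reagent at 4 °C for 1 hour. FACS followed streptavidin microbead enrichment, using low and high (top ~1%) gates for expression (anti-HA) and reagent binding (streptavidin). Colony PCR, MiSeq 2 × 250 sequencing and CDR-length filtering followed. Labels for polyreactivity reflect the gate of origin.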", "values": [{"sequence": "QVQLEESGGGLVQAGGSLRLSCAASGRIFRYTLGWYRQAPGKERELVATINSGGRTYDADSVKGRFTISRDNAKNTVYLQMNSLKPEDTAVYYCAATYQTKSNKYVHGSPIENDYWGQGTQVTGSS", "polyreactivity (PSR sort gate)": "low polyreactivity"}, {"sequence": "QVQLEESGGGLVQAGGSLRLSCAASGRIFVTNAMGWSRQAPGKERELVADITSGGSTNYADSVKGRFTISRDNAKNTVYLQMNSLKPEDTAVYYCAARFTPYITSDDGHYDYWGQGTQVTVSS", "polyreactivity (PSR sort gate)": "low polyreactivity"}, {"sequence": "QVQLEESGGGLVQAGGSLRLSCAASGRIFWANAMGWSRQAPGKERELVAAINRRTGITYYADSVKGRFTISRDNAKNTVYLQMNSLKPEDTAVYYCNAGSSPIRQYYGQVWKKGGYWGQGTQVTVSS", "polyreactivity (PSR sort gate)": "high polyreactivity"}, {"sequence": "QVQLEESGGGLVQAGGSLRLSCAASGRIFYDYAMGWYRKAPGKERELVATISWSAGIKYYADSVKGRFTISRDNAKNTVYLQMNSLKPEDTAVYYCAKVGRYTYSGQYDYWGQGTQVTVSS", "polyreactivity (PSR sort gate)": "high polyreactivity"}, {"sequence": "QVQLEESGGGLVQAGGSLRLSCAASGRIFYLNAMGWYRQAHGKERDLVAAITRSAASTHYADSVKGRFTISRDNAKNTVYLQLNSLKPEDTAVYYCAARFWYDYRHYDYWGQGTQVSVSS", "polyreactivity (PSR sort gate)": "low polyreactivity"}, {"sequence": "QVQLEESGGGLVQAGGSLRLSCAASGRIIRINPMGLYRQAPGKERELVAAITRGGTTYADSVKGRFTFSRDNAKNTVYLQMNSLKPEDTAVYYCNARTGRSPTGFLYWGQGTQVTVSS", "polyreactivity (PSR sort gate)": "high polyreactivity"}, {"sequence": "QVQLEESGGGLVQAGGSLRLSCAASGRIYRYYDMGWYRQAPGKEREFVAAITRSGAITYYADSLKGRFTISRDNAKNTVYLQMNSLKPEDTAVYYCAAVDDDYSIVWYDYWGQVTQVTVSS", "polyreactivity (PSR sort gate)": "low polyreactivity"}, {"sequence": "QVQLEESGGGLVQAGGSLRLSCAASGRSFRKYAMGWYRQAPGKERELVARISWSAGSTYYADSVKGRFKISRDIAMYTVYLQMNSLKPVDTAFYFCIDDGYYRYGNRVLRPGYYCGQGTQVTVSS", "polyreactivity (PSR sort gate)": "high polyreactivity"}, {"sequence": "QVQLEESGGGLVQAGGSLRLSCAASGRTFLEYVMGWYRQAPGKERELVAVISWSTGSTYADSVKGRFTISRDNAKNTVYLQMNSLKPEDTAVYYCARRVQSLGNVVIYNYWGQGTQVTVSS", "polyreactivity (PSR sort gate)": "low polyreactivity"}, {"sequence": "QVQLEESGGGLVQAGGSLRLSCAASGRTFRINAMGLYRQAPGKERELVAAIRSRAGSTYYADSVKGRFTISRDNAKNTVYLQMNSLKPEDTAVYYCAAKLPFDVDYWGQGTQVTVSS", "polyreactivity (PSR sort gate)": "high polyreactivity"}, {"sequence": "QVQLEESGGGLVQAGGSLRLSCAASGRTFSPNTMGWYRQAPGKEREFVAAITASGDSTYYADSVKGRFTISRDNAKYSVYLQMNRLKPEDTAVYYCATDSNWYWGFNYWGQGTQVTVSS", "polyreactivity (PSR sort gate)": "low polyreactivity"}, {"sequence": "QVQLEESGGGLVQAGGSLRLSCAASGRTFSRNAMGWYRQAPGKERELVAAITKGGGSTYYADSVKGRFTISRDNAKNTVYLQMNSLKPEDTAVYYCAARKRPPYGYGYWGQGTQVTVSS", "polyreactivity (PSR sort gate)": "high polyreactivity"}, {"sequence": "QVQLEESGGGLVQAGGSLRLSCAASGRTFTPNAMGSSRQAPGKERELVASIRRGTSTYYADSVKGRFTISRDNAKITVYLQMNSLKPEDTAVYYCAARPFVPRVGTYSYYWGQGTQVTVSS", "polyreactivity (PSR sort gate)": "high polyreactivity"}, {"sequence": "QVQLEESGGGLVQAGGSLRLSCAASGRTFTSNPMGLYRKAPGKERELVAAISNSGSSTYYADSVKGRFTISRDNAKNTVYLQMNSLKAEDTAVYYCAAYHYRQNTLYYYWGQGTQVTVSS", "polyreactivity (PSR sort gate)": "high polyreactivity"}, {"sequence": "QVQLEESGGGLVQAGGSLRLSCAASGRTFTVYAMGWYRQAPGKERELVAGIRRGDSTYYADSVKGRFTISRDNAKNTVYLQMNSLKPEDTAVYYCAARPAGYGHYKYYYWGQGTQVTVSS", "polyreactivity (PSR sort gate)": "high polyreactivity"}, {"sequence": "QVQLEESGGGLVQAGGSLRLSCAASGRTFVYNAMGWYRQAPGKERELVAAITSGGRTYYADSVKGRFTISRDNAKNTVYLQMNSLKPEDTAVYYCAADHRGEYDYWGQGTQVTVSS", "polyreactivity (PSR sort gate)": "low polyreactivity"}, {"sequence": "QVQLEESGGGLVQAGGSLRLSCAASGRTLGGYAMGWYRQAPGKERELVASITARGGSTYYADSVKGRFTISRDNAKNTVYLQMNSLKPEDTAVYYCAARSGYYRGGFYYWGQGTQVTVSS", "polyreactivity (PSR sort gate)": "high polyreactivity"}, {"sequence": "QVQLEESGGGLVQAGGSLRLSCAASGRTLQRNAMGWYRQAPGKERELVAAISWSGASTYYADSVKGRFTISRDNAKNTVYLQMTSLKPEDTAVYYCAATYIDRGNIYDYWGQGTQVTVSS", "polyreactivity (PSR sort gate)": "high polyreactivity"}, {"sequence": "QVQLEESGGGLVQAGGSLRLSCAASGRTSLAYAKGWYRQAPGKERELVAGITSGGNTNYADSVKGRFTISRDNAKNTVYLQMNSLKPEDTAVYSCNKKKRWQWYSESVLVYLGFYSWGQGTQVTVSS", "polyreactivity (PSR sort gate)": "low polyreactivity"}, {"sequence": "QVQLEESGGGLVQAGGSLRLSCAASGSIFDVIAMGWYSQAPGNVRVLVAAISDSGGSTYYADSVKGRFTNSRDNAKKTVYLQMNSLKPEDTAVYYCNADWSWYNYYDFDYWGLGTQVTVSS", "polyreactivity (PSR sort gate)": "low polyreactivity"}, {"sequence": "QVQLEESGGGLVQAGGSLRLSCAASGSIFFFYAMGWYRQAPGKERELVAAISSDGSTKYADSVKGRFTISRDNAKNTVYLQMNILKPEDTAVYYCNADKWSVVGYVLGFYRDDYWGQGTQVTVSS", "polyreactivity (PSR sort gate)": "low polyreactivity"}, {"sequence": "QVQLEESGGGLVQAGGSLRLSCAASGSIFKGYAMGWYRQAPGKESELVAAISGGGGSTYYADSVKGRFTISRDNAKNTVYLQMNSLKPEDTAVYYCNRDDSWSPSGAYDYWGQGTQVNVSS", "polyreactivity (PSR sort gate)": "low polyreactivity"}, {"sequence": "QVQLEESGGGLVQAGGSLRLSCAASGSIFRNNSMGWYRKAPGKERVLVAVISRRSGNTYYADSVKGRLTISRDNAKNTVYLQMNSLKAEDTAVYYCAADYSKSSIRGEYWGQGTQVTVSS", "polyreactivity (PSR sort gate)": "low polyreactivity"}, {"sequence": "QVQLEESGGGLVQAGGSLRLSCAASGSIFRNYAIGWYRQAPGKEREFVAANTYSGGSTHYADSVKGRFTISRDNAKNTVYLQMNSLKPEDTAVYYCAADYYWRVHYGYWGQGTQVTVSS", "polyreactivity (PSR sort gate)": "high polyreactivity"}, {"sequence": "QVQLEESGGGLVQAGGSLRLSCAASGSIFVHNDMGWYRQAPGKERELVATIDSAGGTYYADSVKGRFTISRDNAKNTVYLQMNSLKPEDTAVYYCAAYGPYVLSIYDYWGQGTQVTVSS", "polyreactivity (PSR sort gate)": "low polyreactivity"}, {"sequence": "QVQLEESGGGLVQAGGSLRLSCAASGSIFVRNAMGWYRQAPGKERELVASISRRGGSTYYADSVKGRFTISRDNAKNTVYLQMISLKPEDTAVYYCAARNQIVPYGTYNYWGQGTQVTVSS", "polyreactivity (PSR sort gate)": "high polyreactivity"}, {"sequence": "QVQLEESGGGLVQAGGSLRLSCAASGSIFVVYAMGWSRQAPGKERELVASIRTGGSTNYADSEKGRFTISRDNAKNNVYLQMNSLKPEDTAVYYCAAASWNSNRHYYVARYYYWGQGTQVTVSS", "polyreactivity (PSR sort gate)": "high polyreactivity"}, {"sequence": "QVQLEESGGGLVQAGGSLRLSCAASGSIFVYYARGWYRQAPGKERELVATISRRGGSTYYADSVKGRFTISRDNAKNTVYLQMTSLKPEDTAVDYCNAAPSPVGSARSSLTRYTGMDYWGQGTQVSVSS", "polyreactivity (PSR sort gate)": "high polyreactivity"}, {"sequence": "QVQLEESGGGLVQAGGSLRLSCAASGSIFYSNAMGWYRQAPGKERELVATIRSGGTTYYADSVKGRFTISRDNAKNTVYLQMNSLKPEDTAVYYCAKRYGVKYWGQGTQVTVES", "polyreactivity (PSR sort gate)": "high polyreactivity"}, {"sequence": "QVQLEESGGGLVQAGGSLRLSCAASGSIIYAYAMGWSRQAPGKERELVDGIRDGGSTYYADSVKWRFTISRDNAKNTVYLQMNSLKPADTAVYYCAAGPRIRDDYWGQGTQVTVSS", "polyreactivity (PSR sort gate)": "low polyreactivity"}, {"sequence": "QVQLEESGGGLVQAGGSLRLSCAASGSILVAYAMGWYRQAPGKERELVAAISSVGNTYYADSVKGRFTISRDNAKNTVYLQMNSLKPEDTAVYYCNAVYRVWYAEWSTVGSPHDYWGQGTQVTVSS", "polyreactivity (PSR sort gate)": "low polyreactivity"}, {"sequence": "QVQLEESGGGLVQAGGSLRLSCAASGSILYVYAMGWSRQAPGKERELVAAMTRSGDTTSYADSVKGRFTISRDFAKNTVYLQLNSLKPEDTAVYYCDAAERRYGRGYGYWGQCTQVTVSS", "polyreactivity (PSR sort gate)": "high polyreactivity"}, {"sequence": "QVQLEESGGGLVQAGGSLRLSCAASGSNFSRYAMGWYRQAPGKERELVAAISWAGNTYYADSVKGRFTISRDNAKNTVYLQMNSLKPEDTAVYYCNADRVRYLFTRYDYWGQGTQVTVSS", "polyreactivity (PSR sort gate)": "high polyreactivity"}, {"sequence": "QVQLEESGGGLVQAGGSLRLSCAASGSTFHTYAMGWYRQAPGKERELVASISYGVTTYYADSVKGRFTISRDNAKNTVYLQMNSLTPEDTAVYYCAREGYNWVYLSYGYWGQGTQVTVSS", "polyreactivity (PSR sort gate)": "low polyreactivity"}, {"sequence": "QVQLEESGGGLVQAGGSLRLSCAASGSTFINNAMGWYRQPPGKERELVAAISSGGSTYYADSVKGRFTISRDNAKNTVYLEMNSLKPEDTAVYYCAAEFVETKYPEMDYWGQGTQVTVSS", "polyreactivity (PSR sort gate)": "low polyreactivity"}, {"sequence": "QVQLEESGGGLVQAGGSLRLSCAASGSTFLQYPMGWYRQATGKQRELVAAISWRAGSTYYADSVKGRFTISRDTAKNTVYLQMNTLKPEDTAVNYCDADGNRWRYELDDYDYWGQGTQVTGSS", "polyreactivity (PSR sort gate)": "low polyreactivity"}, {"sequence": "QVQLEESGGGLVQAGGSLRLSCAASGSTFPFYAMGWYRQAPGKERELVAAISRGGSTNYADSVKGRFTISRDNAKNTVYLQMNSLKPEDTAVYYCNADVFWWYPYDYWGQGTQVTVSS", "polyreactivity (PSR sort gate)": "high polyreactivity"}, {"sequence": "QVQLEESGGGLVQAGGSLRLSCAASGSTFRLYAMGWYRQAPGKERELVATITNGGNTYYADSVKGRFTISRDNAKNTVYLQMNSLKPEDTAVYYCAKRLSRRYDYWGQGTQGTVSS", "polyreactivity (PSR sort gate)": "low polyreactivity"}, {"sequence": "QVQLEESGGGLVQAGGSLRLSCAASGSTFSGYAMGWYIPAPGKERELVATIRRGGSTYADSVKGRFTISRDNAKNTVYLQMNSLKPEDTAVYYCAADAYVSSQPMDYWGQGTQVTVSS", "polyreactivity (PSR sort gate)": "high polyreactivity"}, {"sequence": "QVQLEESGGGLVQAGGSLRLSCAASGSTFVGNAMGWYRQAPGKERELVAAISFSGGSTYYADSVKGRFTISRDNAKNTVYLQMNSLKPEDTAVYYCAKKTRYRSRGMNYWGQGTQVTVSS", "polyreactivity (PSR sort gate)": "high polyreactivity"}, {"sequence": "QVQLEESGGGLVQAGGSLRLSCAASGSTFYLYDMGWYRQAPGKERELVAVISWSGGSTSYADSVKGRFTISRDNAKNTIYLQMNSLKPEDTAVYYCNTDFYHWGQGTQVTVSS", "polyreactivity (PSR sort gate)": "low polyreactivity"}, {"sequence": "QVQLEESGGGLVQAGGSLRLSCAASGSTIPPYAMGWYRQAPRKERELVAAITSGGSTYYADSVKGRFTISRDNAKNTVYLQMNSLKPEDTAVYYCAASWDPWEYDYWGQGTQVTVSS", "polyreactivity (PSR sort gate)": "low polyreactivity"}, {"sequence": "QVQLEESGGGLVQAGGSLRLSCAASGSTLIYNAMGWYRPAPGKERELVAAISASGTRTYYADSVKGRFTISRDNAKNTVYLQMNSLKPEDTAVYYCNALRRAPRAEYYYWGQGTQVTVSS", "polyreactivity (PSR sort gate)": "high polyreactivity"}]}]}
